Data: patent US20110294227A1

Key:
Test in all cases: DELFIA Xpress PlGF sandwich immunoassay; tested substance at 5000 pg/mL
[1] = molecular target: PlGF-1 (glycosylated), purified recombinant placental growth factor isoform 1 (human) (UniProt P49763)
[2] = molecular target: PlGF-2 (glycosylated), purified recombinant placental growth factor isoform 2 (human)
[3] = molecular target: PlGF-3 (non-glycosylated), purified recombinant placental growth factor isoform 3 (human) (UniProt P49763)

PlGF-2 (glycosylated), purified recombinant placental growth factor isoform 2 (human), sequence (chain, as listed by the source limits assumed): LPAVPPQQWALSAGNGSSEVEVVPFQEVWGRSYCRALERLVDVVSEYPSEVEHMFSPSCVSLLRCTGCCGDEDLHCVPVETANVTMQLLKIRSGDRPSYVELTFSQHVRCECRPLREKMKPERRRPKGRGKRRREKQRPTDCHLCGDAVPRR

Observed cross-reactivity (%) [1]: 33%
Observed cross-reactivity (%) [2]: 16%
Observed cross-reactivity (%) [3]: 5%
Substance: P1GF-1 antibody provided with the DELFIA Xpress kit (commercial DELFIA Xpress P1GF method, PerkinElmer)
